Source: the supplement of paper PMC12667976
± gives the standard error.

B1: library; numbered along this chain (parent)
chain: MATDAALRRLLRLHRTEIAVAVDSAFPLLHALADHDVVPEDKFQETLHLKEKEGCPQAFHALLSWLLTQDSTAILDFWRVLFKDYNLERYGRLQPILDSFPKDVDLSQPRKGRKPPAVPKALVPPPRLPTKRKASEEARAAAPAALTPRGTASPGSQLKAKPPKKPESSAEQQRLPLGNGIQTMSASVQRAVAMSSGDVPGARGAVEGILIQQVFESGGSKKCIQVGGEFYTPSKFEDSGSGKNKARSSSGPKPLVRAKGAQGAAPGGGEARLGQQGSVPAPLALPSDPQLHQKNEDECAVCRDGGELICCDGCPRAFHLACLSPPLREIPSGTWRCSSCLQATVQEVQPRAEEPRPQEPPVETPLPPGLRSAGEEVRGPPGEPLAGMDTTLVYKHLPAPPSAAPLPGLDSSALHPLLCVGPEGQQNLAPGARCGVCGDGTDVLRCTHCAAAFHWRCHFPAGTSRPGTGLRCRSCSGDVTPAPVEGVLAPSPARLAPGPAKDDTASHEPALHRDDLESLLSEHTFDGILQWAIQSMARPAAPFPS

Variants of: B1
Assay: AIRE transcriptional activation functional score (insulin promoter-GFP; nonsense median 0, synonymous median 1) (normalised score); higher = higher AIRE activity (more reporter activation)
Settings: with insulin promoter-GFP reporter in HEK293
Protocol: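 Deep mutational scan of full-length human AIRE (codon-optimized cDNA, DT-POPCode NNN libraries over three regions) integrated at a Bxb1 landing pad in HEK293 cells carrying an insulin core promoter-GFP reporter at a Flp-In site. Cells were sorted for the top 10% GFP about 14 days after transfection. Variant frequency log-ratios (select vs non-select, TileSeq) were rescaled so that the nonsense median is 0 and the synonymous median is 1, then averaged over biological replicates.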

AIRE transcriptional activation functional score of substitutions, site by site:
L285: C 0.894 ± 0.2 | V 0.989 ± 0.16 | A 1.37 ± 0.61 | N 0.918 ± 0.047 | I 1.02 ± 0.082 | F 0.835 ± 0.33 | K 0.713 ± 0.23 | R 1.02 ± 0.33 | T 0.845 ± 0.47 | S 0.921 ± 0.25 | P 1.17 ± 0.45 | G 0.429 ± 0.3 | H 0.689 ± 0.094 | Y 0.979 ± 0.08 | D 1.56 ± 0.21 | Q 1.22 ± 0.074
A284: L 1.02 ± 0.29 | I 1.23 ± 0.24 | C 0.943 ± 0.11 | M 0.962 ± 0.03 | R 1.12 ± 0.15 | D 1.06 ± 0.14 | W 1.16 ± 0.027 | G 1.03 ± 0.21 | T 0.876 ± 0.2 | P 0.905 ± 0.28 | S 1.1 ± 0.28 | H 0.932 ± 0.3 | Q 1.39 ± 0.3 | V 1.06 ± 0.16 | N 0.828 ± 0.039 | E 0.63 ± 0.16 | K 0.964 ± 0.18 | F 1.2 ± 0.18 | Y 1.32 ± 0.18
A281: D 0.674 ± 0.04 | H 1.11 ± 0.085 | R 1.15 ± 0.39 | K 1.67 ± 0.12 | M 0.425 ± 0.077 | F 1.63 ± 0.22 | E -0.175 ± 0.053 | G 1.5 ± 0.098 | Y 1.32 ± 0.046 | S 0.99 ± 0.19 | T 0.867 ± 0.14 | I 0.957 ± 0.46 | C 0.996 ± 0.17 | L 1.31 ± 0.25 | P 0.84 ± 0.2 | V 0.872 ± 0.29 | Q 1.02 ± 0.46 | W 1.53 ± 0.049 | N 0.445 ± 0.21
P286: L 1.14 ± 0.32 | A 0.97 ± 0.35 | I 0.986 ± 0.4 | M 1.36 ± 0.059 | G 1.05 ± 0.13 | N 0.454 ± 0.077 | S 0.834 ± 0.37 | Y 1.65 ± 1 | F 1.54 ± 0.18 | C 0.46 ± 0.43 | H 0.652 ± 0.12 | D 0.448 ± 0.17 | K 0.495 ± 0.61 | V 1.26 ± 0.079 | E 1 ± 0.042 | R 1.17 ± 0.44 | T 1.07 ± 0.25 | Q 1.07 ± 0.083 | W 1.61 ± 0.054
P289: N 0.167 ± 0.083 | M 1.35 ± 0.076 | G 1.14 ± 0.17 | E 0.531 ± 0.046 | A 0.95 ± 0.35 | C 1.08 ± 0.17 | V 1.09 ± 0.2 | S 1.3 ± 0.22 | R 1.19 ± 0.28 | W 1.43 ± 0.15 | L 0.891 ± 0.15 | Q 0.942 ± 0.36 | K 1.39 ± 0.21 | H 1.22 ± 0.052 | T 1.37 ± 0.35 | D -0.468 ± 0.061 | F 0.919 ± 0.29
N295: E 1.27 ± 0.02 | R 0.795 ± 0.31 | Y 1.08 ± 0.14 | D 0.921 ± 0.23 | P 1.05 ± 0.3 | F 0.892 ± 0.34 | K 1.03 ± 0.083 | W 0.869 ± 0.029 | T 1.14 ± 0.23 | L 1.17 ± 0.36 | Q 0.995 ± 0.28 | V 1.09 ± 0.33 | I 0.856 ± 0.15 | M -0.37 ± 0.08 | A 0.906 ± 0.33 | H 0.879 ± 0.46 | C 1.01 ± 0.33 | S 0.92 ± 0.26 | G 0.969 ± 0.24
P282: H 0.91 ± 0.075 | Y 1.17 ± 0.27 | F 0.638 ± 0.14 | N -0.335 ± 0.22 | V 1.38 ± 0.26 | K 1.2 ± 0.063 | C 2.16 ± 0.071 | E 0.555 ± 0.085 | S 0.614 ± 0.22 | A 0.929 ± 0.3 | W 1.1 ± 0.065 | D 1.05 ± 0.057 | L 1.31 ± 0.25 | T 1.27 ± 0.22 | G 1.03 ± 0.24 | Q 0.976 ± 0.13 | I 1.43 ± 0.19 | M 1.1 ± 0.029 | R 0.839 ± 0.35
Q290: M 1.27 ± 0.14 | N 1.19 ± 0.22 | A 0.939 ± 0.38 | E 0.67 ± 0.12 | T 0.55 ± 0.43 | V 1.04 ± 0.32 | K 0.932 ± 0.018 | S 0.97 ± 0.17 | Y 1.48 ± 0.15 | R 1.2 ± 0.41 | G 1.02 ± 0.32 | W 1.1 ± 0.043 | I 0.465 ± 0.35 | F 1.21 ± 0.16 | C 0.819 ± 0.11 | H 0.981 ± 0.28 | L 0.646 ± 0.18 | P 0.267 ± 0.4
H292: M 1.7 ± 0.18 | P 0.865 ± 0.43 | F 0.915 ± 0.5 | Y 0.957 ± 0.47 | T 1.13 ± 0.32 | C 0.815 ± 0.12 | N 1.03 ± 0.019 | W 1.03 ± 0.047 | Q 0.508 ± 0.22 | S 0.599 ± 0.16 | G 1.12 ± 0.18 | E -0.172 ± 0.071 | A 0.816 ± 0.34 | R 0.856 ± 0.19 | I 0.603 ± 0.25 | D 0.892 ± 0.31 | V 0.936 ± 0.42 | L 0.55 ± 0.36 | K 0.992 ± 0.13
K294: V 0.546 ± 0.13 | Q 1.43 ± 0.11 | C 1 ± 0.18 | P 1.21 ± 0.14 | I 0.609 ± 0.26 | T 0.822 ± 0.31 | M 0.969 ± 0.25 | L 0.857 ± 0.44 | F 0.447 ± 0.21 | A 0.459 ± 0.36 | H 0.554 ± 0.27 | N 0.937 ± 0.093 | G 0.728 ± 0.32 | R 1.17 ± 0.3 | W -0.487 ± 0.098 | S 0.706 ± 0.33 | Y 0.634 ± 0.16 | E 0.357 ± 0.087
S287: N 1.13 ± 0.33 | M 1.29 ± 0.072 | W 1.12 ± 0.057 | K 0.385 ± 0.1 | I 1.07 ± 0.22 | F 0.994 ± 0.031 | G 1.22 ± 0.13 | A 1.17 ± 0.32 | C 1.07 ± 0.13 | V 0.972 ± 0.26 | Y 1.17 ± 0.15 | L 1.38 ± 0.31 | D 0.579 ± 0.25 | H 0.964 ± 0.16 | T 1.44 ± 0.12 | R 1.04 ± 0.26 | Q 1.24 ± 0.38 | P 0.464 ± 0.031 | E 0.811 ± 0.19
S278: V 1.09 ± 0.31 | N 0.723 ± 0.3 | P 1.12 ± 0.29 | R 0.819 ± 0.16 | Y 1.29 ± 0.17 | T 1.23 ± 0.46 | W 1.19 ± 0.12 | I 1.04 ± 0.18 | K 1.28 ± 0.24 | L 1.01 ± 0.28 | Q 1.16 ± 0.17 | M 1.35 ± 0.14
V279: A 1.45 ± 0.19 | S 1.24 ± 0.4 | G 1.08 ± 0.14 | R 1.04 ± 0.18 | W 1.4 ± 0.13 | Q -0.249 ± 0.29 | E 1.08 ± 0.12 | D -0.0439 ± 0.22 | F 1.69 ± 0.43 | I 0.721 ± 0.43 | H 1.06 ± 0.055 | T 0.815 ± 0.12 | K 0.637 ± 0.24 | P 1.06 ± 0.19 | C 1.36 ± 0.22 | L 1 ± 0.24 | N 0.603 ± 0.33 | Y 1.26 ± 0.048 | M 1.34 ± 0.095
L291: Q 0.902 ± 0.21 | H 0.333 ± 0.37 | G 1.06 ± 0.14 | R 0.656 ± 0.47 | Y 1.69 ± 0.043 | T 0.708 ± 0.16 | M 1.29 ± 0.025 | V 1.03 ± 0.21 | S 1.1 ± 0.44 | P 1.26 ± 0.12 | W 0.706 ± 0.12 | A 0.566 ± 0.33 | C 1.01 ± 0.29 | I 0.864 ± 0.069 | E 0.759 ± 0.11 | N 0.0689 ± 0.21 | K 0.675 ± 0.18 | D 0.351 ± 0.24 | F 1.15 ± 0.22
D288: T 0.903 ± 0.2 | A 1.19 ± 0.096 | C 1.26 ± 0.1 | K 0.535 ± 0.27 | L 1.19 ± 0.34 | Q 0.949 ± 0.084 | Y 1.23 ± 0.16 | M 1.31 ± 0.15 | E 0.565 ± 0.14 | G 1.14 ± 0.28 | V 1.14 ± 0.17 | R 1.08 ± 0.34 | H 0.855 ± 0.19 | W 1.59 ± 0.078 | P 1.15 ± 0.18 | S 1.24 ± 0.26 | I 1.38 ± 0.21 | N 0.786 ± 0.39 | F 1.5 ± 0.13
L283: Y 1.19 ± 0.19 | K 1.19 ± 0.23 | G 0.798 ± 0.17 | I 0.854 ± 0.18 | H 1.15 ± 0.15 | W 1.14 ± 0.032 | C 0.771 ± 0.21 | T 1.02 ± 0.36 | D 1.01 ± 0.17 | F 1.17 ± 0.21 | E 0.987 ± 0.2 | P 0.953 ± 0.21 | Q 0.784 ± 0.11 | N 0.486 ± 0.18 | A 1.02 ± 0.32 | M 1.34 ± 0.034 | R 1 ± 0.23 | S 1.01 ± 0.19 | V 1.12 ± 0.096
Q293: N 0.746 ± 0.046 | R 0.982 ± 0.32 | H 1.18 ± 0.27 | D 0.479 ± 0.55 | G 1 ± 0.49 | F 1.1 ± 0.32 | E 1.33 ± 0.14 | A 0.738 ± 0.16 | Y 0.958 ± 0.49 | T -0.386 ± 0.78 | P 0.602 ± 0.28 | W 1.35 ± 0.054 | K 1.16 ± 0.12 | I 0.523 ± 0.12 | C 0.906 ± 0.044 | V 0.932 ± 0.26 | M 0.829 ± 0.075 | S 0.559 ± 0.4 | L 1.08 ± 0.22
E296: A 0.699 ± 0.31 | D 0.711 ± 0.29 | C 0.394 ± 0.58 | G 1.03 ± 0.25 | F 1.09 ± 0.11 | H 1.76 ± 0.052
P280: N 1.37 ± 0.042 | A 0.981 ± 0.21 | M 1.23 ± 0.074 | D 0.642 ± 0.23 | F 1.58 ± 0.24 | R 1.01 ± 0.22 | L 1.28 ± 0.27 | I 0.993 ± 0.099 | Q 1.14 ± 0.094 | T 1.04 ± 0.29 | Y 1.42 ± 0.076 | W -0.397 ± 0.28 | G 1.17 ± 0.45 | V 1.2 ± 0.15 | C 0.574 ± 0.13 | S 1.1 ± 0.41 | E 1.13 ± 0.23 | K 0.978 ± 0.09 | H 1.04 ± 0.14
